From publication doi:10.1101/313882, “Cryptic adaptor protein interactions regulate DNA replication initiation” (bioRxiv, 2018)

Key:
[1] = biological target: the molecule itself; experiment: SEC; size exclusion chromatogram of wild type DnaD^WHD or the ΔNT variant, absorbance at 280 nm (S2 Fig B)
[2] = biological target: the molecule itself; experiment: cross-linking; purified DnaD^WHD or variant at 16 uM with 0.03%, 0.06%, 0.12% glutaraldehyde; 20 mM HEPES pH 7.7, 150 mM NaCl, 1 mM DTT, 1 mM EDTA, 5% glycerol; 15 minutes at room temperature; SDS-polyacrylamide gel, coomassie blue

Row | Protein | stoichiometry N [2] | also measured
1 | purified DnaD^WHD ΔNT variant (B. subtilis) (domain or fragment, UniProt P39787 19-128, looked up, DnaD, B. subtilis, winged helix domain (1-128) without the N-terminal extension (residues 1-18); The limits 19-128 are worked out from the printed extension (1-18) and the limits of DnaD^WHD (1-128); the purification is that told for DnaD^WHD and its variants; source: E. coli BL21 (DE3), purified (amylose, Ulp1 digestion, HiTrap Q, Sephacryl S-200); not shown: HIS6, N-terminal, cleaved; MBP, …) NLLLTHYKQLGLNETELILLLKIKMHLEKGSYFPTPNQLQEGMSISVEECTNRLRMFIQKGFLFIEECEDQNGIKFEKYSLQPLWGKLYEYIQLAQNQTQERKAEGEQKS | – | stoichiometry N [1]: 2
2 | purified DnaD^WHD F51A (B. subtilis) (domain or fragment, UniProt P39787 1-128, looked up, DnaD, B. subtilis, winged helix domain, amino acids 1-128, F51A; source: E. coli BL21 (DE3), purified (amylose, Ulp1 digestion, HiTrap Q, Sephacryl S-200); not shown: HIS6, N-terminal, cleaved; MBP, N-terminal, cleaved; SUMO, N-terminal, cleaved) MKKQQFIDMQEQGTSTIPNLLLTHYKQLGLNETELILLLKIKMHLEKGSYAPTPNQLQEGMSISVEECTNRLRMFIQKGFLFIEECEDQNGIKFEKYSLQPLWGKLYEYIQLAQNQTQERKAEGEQKS | 4 | –
3 | purified DnaD^WHD, wild type (B. subtilis) (domain or fragment, UniProt P39787 1-128, looked up, DnaD, B. subtilis, winged helix domain, amino acids 1-128; native N-terminus after Ulp1; also called WT; source: E. coli BL21 (DE3), purified (amylose, Ulp1 digestion, HiTrap Q, Sephacryl S-200); not shown: HIS6, N-terminal, cleaved; MBP, N-terminal, cleaved; SUMO, N-terminal, cleaved) MKKQQFIDMQEQGTSTIPNLLLTHYKQLGLNETELILLLKIKMHLEKGSYFPTPNQLQEGMSISVEECTNRLRMFIQKGFLFIEECEDQNGIKFEKYSLQPLWGKLYEYIQLAQNQTQERKAEGEQKS | – | binding result [2]: binds
4 | purified DnaD^WHD I83A (B. subtilis) (domain or fragment, UniProt P39787 1-128, looked up, DnaD, B. subtilis, winged helix domain, amino acids 1-128, I83A; source: E. coli BL21 (DE3), purified (amylose, Ulp1 digestion, HiTrap Q, Sephacryl S-200); not shown: HIS6, N-terminal, cleaved; MBP, N-terminal, cleaved; SUMO, N-terminal, cleaved) MKKQQFIDMQEQGTSTIPNLLLTHYKQLGLNETELILLLKIKMHLEKGSYFPTPNQLQEGMSISVEECTNRLRMFIQKGFLFAEECEDQNGIKFEKYSLQPLWGKLYEYIQLAQNQTQERKAEGEQKS | 4 | –
